{"source": "the DeepSol protein solubility set"}
{"experiment": "soluble on expression in E. coli; label from the status in PepcDB or PDB records"}
{"sequence": "MGSDKIHHHHHHMEELLERVFSFSDVDKLIDFISYELQKPVILESADFFLLAYNSYYINHFDSANQQTIFSKKCPVQIFERFLKDGIIEKLKTEPEPFRVNKIESIGLNQRVVVSAKHKGEVMGYIWIQELDQNLTDEELDFLYETSFHVGKIIYKTNKLKQEKEEKAEDLIKRAIYQQFTSEKELRREAERINTVLPSMFSVVILHAANGDGEAVEDLKENIRSYLNLRDKVSHVLTIESNIVIVVASFSQKSSVSSAASEFINKLLTHFHFQKIPTPIYIGIGNEYNHLLKLGKSYTEALEVIKAAEITGNQENIPYEYAKLGIYRYLESIEQKNEFLEYENKDLALLKAKDEESSTELLKTLEVYLLNNCKTKPAAEQLFIHQNTLNYRIKQITEMTSIDLSDFRTRCQLYLDLMLMKKK", "soluble on expression in E. coli": "not soluble"}
{"sequence": "DNTQHYRELFLDDIPLMDVRAPVEYHKGAFPNTVNRPLMNDIERQKVGTSYKQHGQQAAIALGHELVCGALKAERLAAWKAFAEANPNGYLYCFRGGLRSQIVQQWLKQDAGIDYPRVIGGYKALRNFLFETTRAAVDECDFVLVGGLTGCGKTEVIAALDNSLDLEGHANHRGSSFGRRATPQPAQIDFENRLAIDILKKRHRGVGQFVLEDEGRIVGSCSLPLELYQGMQGYPLVWLEDAFEQRVERILRDYVIDLRSEFERVVGVEEGFAAFSAYLQKSLAGIVKRLGGERYQRLAAILVQALEEQGRDGSVDTHRGWIEGLLKEYYDPMYAFQRQSKEDRVEFRGNQAEVIGYLR", "soluble on expression in E. coli": "not soluble"}
{"sequence": "MAKGTIKTNTPPPAPVVGPPGKSAKYRVKHTITVMSGKGGVGKSTVAVNLAVSLAKKGLKVGLIDADINGPDDPKLLGVEDLKLYADDDGIIPAETKYGVKVVSMGFLLPSQDTPVIWRGSLMHKAIQQFLEDVSWKDTDYVVLDMPPGTGDVALSVAQLVPESNGVVIVVTPQDVALLDAKKAINFARQLKLPIFGIIENMSGFVCPHCGNVTYIFKEGGGEKSAKEYNVPFLGKIPLVPEIADNGDKGIPAVEINDTIKSIFNDIADKILKQILGENVKTEALEHHHHHH", "soluble on expression in E. coli": "not soluble"}
{"sequence": "GMTSNGQQGKPNLPEKDNLPRELGTQRINSPIARMGMFGAKTTGDTSGYGRLRVYRHVPAAAQRPYSDPSDPRTAYFDEVADALERSLKEIGTPYDTAISRVVVDRGEITFHVQREHLLDVATRLRDDPALRFELCLGVTGVHYPEDEGNELHAVYALRSITHNYEIRLEVSCPDSDPHIPSIVSVYPTNDWHEREAWDFFGIIFDGHPALTR", "soluble on expression in E. coli": "soluble"}
{"sequence": "MSQHNEKNPHQHQSPLHDSSEAKPGMDSLAPEDGSHRPAAEPTPPGAQPTAPGSLKAPDTRNEKLNSLEDVRKGSENYALTTNQGVRIADDQNSLRAGSRGPTLLEDFILREKITHFDHERIPERIVHARGSAAHGYFQPYKSLSDITKADFLSDPNKITPVFVRFSTVQGGAGSADTVRDIRGFATKFYTEEGIFDLVGHNTPIFFIQDAHKFPDFVHAVKPEPHWAIPQGQSAHDTFWDYVSLQPETLHNVMWAMSDRGIPRSYRTMEGFGIHTFRLINAEGKATFVRFHWKPLAGKASLVWDEAQKLTGRDPDFHRRELWEAIEAGDFPEYELGFQLIPEEDEFKFDFDLLDPTKLIPEELVPVQRVGKMVLNRNPDNFFAENEQAAFHPGHIVPGLDFTNDPLLQGRLFSYTDTQISRLGGPNFHEIPINRPTCPYHNFQRDGMHRMGIDTNPANYEPNSINDNWPRETPPGPKRGGFESYQERVEGNKVRERSPSFGEYYSHPRLFWLSQTPFEQRHIVDGFSFELSKVVRPYIRERVVDQLAHIDLTLAQAVAKNLGIELTDDQLNITPPPDVNGLKKDPSLSLYAIPDGDVKGRVVAILLNDEVRSADLLAILKALKAKGVHAKLLYSRMGEVTADDGTVLPIAATFAGAPSLTVDAVIVPCGNIADIADNGDANYYLMEAYKHLKPIALAGDARKFKATIKIADQGEEGIVEADSADGSFMDELLTLMAAHRVWSRIPKIDKIPA", "soluble on expression in E. coli": "soluble"}
{"sequence": "TSLFTTADHYHTPLGPDGTPHAFFEALRDEAETTPIGWSEAYGGHWVVAGYKEIQAVIQNTKAFSNKGVTFPRYETGEFELMMAGQDDPVHKKYRQLVAKPFSPEATDLFTEQLRQSTNDLIDARIELGEGDAATWLANEIPARLTAILLGLPPEDGDTYRRWVWAITHVENPEEGAEIFAELVAHARTLIAERRTNPGNDIMSRVIMSKIDGESLSEDDLIGFFTILLLGGIDATARFLSSVFWRLAWDIELRRRLIAHPELIPNAVDELLRFYGPAMVGRLVTQEVTVGDITMKPGQTAMLWFPIASRDRSAFDSPDNIVIERTPNRHLSLGHGIHRCLGAHLIRVEARVAITEFLKRIPEFSLDPNKECEWLMGQVAGMLHVPIIFPKGKRLSE", "soluble on expression in E. coli": "soluble"}
{"sequence": "MAHHHHHHMRCFRASCCAPSPWQRACSTVASVSDTADLVIVRESPLDNVVLLEMNNGRANVLTPEFISAFLNKLSDLCDPDKSKCSGIILTSKSPGVFSAGLDLNELNTNLSQDRFAQYWSQFQKLFTTLHALPVPLVGAINGHAAAAGCIVALACDYRVMARRHPTKPTHLTIGIAAAKHGFVVPSYVAASMEHVVGFRKAEELLCMGLLLSAGEALKVGLVDEVVEHHDETVVPCLQFMEKLLELPSPAPYWMIKDLSRRHILAPLCTPALRTQDMVSFYNLFSNLQVKKMLAEHAQKFAKK", "soluble on expression in E. coli": "not soluble"}
{"sequence": "MGFFSRDIQTMEDLLLHGLRDIYYAEQQITKALPKMIEQATNRDLSQGLTSHLEETQKQIERLDQVFKKLGQKPSGVNCPAIDGLIKEADETAGEIADKTVLDAAIVANAQAVEHYEIARYGTLIAWAEELGHDDIVRFLTTNLNEEKAANTKLNTVALRKGVNRKAAS", "soluble on expression in E. coli": "soluble"}
{"sequence": "MSLKIGFFIMNIGSAGGTERVSINVANALAKQGYDVSFISIGGNKPFFQVDEKINIYAMNKLPYSLKKDYFSITKKLRELVKELQLDTLIVVDGAIMLFSALALVNLNIKHILWEHYSFNFTGNRLVRTLGKYLAVTTCDKIVTLTEAEKTLWQEKFKTNNIISIANPNTLLPKNKLAKLENKTILSVGHLFSYKGFDYLLKVWQVLAKKYPDWNLKIVGSGEEEENLKNLAKALDIEDSVNFIPRTNDVSFYYESSSIYCLPSQTEGLPLVVIEAMAFGLPIVAFNCSPGVKQLVEHKENGFLCEQNNIEEMVKGLDLLINNPELYLQMSDKSRLMSEDYGIEKIIEEWKGILEGHHHHHH", "soluble on expression in E. coli": "soluble"}
{"sequence": "MGSDKIHHHHHHMIEQLIQQAQPYWQQYIEHEFVQQLAKGTLPKACFQHYLKQDYLYLFHYSRAFALGVFKAKNFAEMETPRKTLEILCQEIQLHLNYCREWGISEQEIFTTQESAACIAYTRYLLDCGMTGSLAELYAAVTPCALGYAQVARYITQHYPRLPNNPYQTWIDTYASEEFQQAAQETVDFLTALCKPLNPSQLAEIQQIFTTATRMEIAFWQMGLDLA", "soluble on expression in E. coli": "not soluble"}
{"sequence": "MNPEKNLYPYTQESSLEQALNFEIAQVWHTRSEGTYRSFDKTHIYWCSLKHPEHQKAVVIVNGRIESAWKYQELCYDLFRQGFDVYTYDHRGQGRSERLTEDRQIGHVHEFQDYVTDLKALVEHFDLGHYQERFLLAHSMGGAIATRYIQTTPAHPFSALALSAPMFGVNMPWYLRPWALLITQIMAAVTLKPSYAPGYGPYHAKPFHLNLLTHSETRYQLFRELYEAHPELQIGGPSHRWVWQSLMATKQCLQLTRQIKIPMLILQAGEEAIVCNRAQIRLFKKLSRTQKRAALCRIAGARHELLFEQDAYRNQTLDHILRFFADSTIDHKRQHHRP", "soluble on expression in E. coli": "not soluble"}
{"sequence": "MSLNKAVLHDHLDGGLRAKTAKELAIKDSYKPLIEIEDIESFFNRESSTSLEDYLEAFVHTTALMSNYDNLERIAFEAAEDMMHFCGITLYESRYAPLYSVNNNLLIKDVLHAINSGFKQAENMYGIKSGLILCGMRNDKDNVSQVSEIAIDFKDQIIGFDIAMGPEYNFLPSLFADEFNKLKNNGINLTIHAGEGDGVNSIQDALDNGAKRIGHGVRIIEDIDTSSKKLGKTAEYVRNKQVPLMEVCITSNIHTNMYEEYNKHPIKDLIDLEFNVSINTDNRLMSNTSMKKEIDIAKNLGINNIDRILENSASYSFLNDFEGHHHHHH", "soluble on expression in E. coli": "soluble"}
{"sequence": "MSLRKPNEKTMKTKFCRTAVYCLCCFMFIQPITGSQVNDTHEGVLHIDKQKTRKVSRVQYGFHYEEIGMIGEGALHAELVRNRSFEEATPPADLAVKNGLYQNVPNPRGKNKDVFHVDPLIGWNTYPLSYTPIFISRTEENPLNKENKYSMLVNVTEDIANNPEAMILNRGYYGMNLRKEVSYHLSMYIKSKNYTALLQVMLVDEQGKPVSTQLVLDVKGKEWTKLTGTLKPDKDVKRGMLAIQPLGKGQFQLDVVSLFPSDTWDNGKSVFRADIMQNLKEYAPDFIRFPGGCIVHGVNEATMYHWKKTIGPIENRPGQWSKWAPYYRTDGIGYHEFYELCEYLGADAMYVIPTGMICTGWVKQSSPWNFIQPDVDLDAYIQDALDAIEYAIGPETSKWGALRVKNGHPKPFPLKYIEIGNEDFGPVYWERYEKIYQALHRQYPDLIYIANSIIGKENDDKRIDIAKFVNPKNVKVFDEHHYQPVEWACKQHYRFDNYERGIADLFVGELGIDGKYPYNLLASGAVRMSLERNGDLNPLLAERPVMRHWDFSEHRQLHSMLINGVDCSIRTSFYYLSKMFRDHTFDVCLDAGIQGMKGLQNVFVTMGYDSESKEYILKLINLRKQEVVLQTAVKGFGKKIQAQKITLSLEPGKNNTPEMPDAVKPVQSTVTLDLNKDLQLEASSMIVYRFKEGHHHHHH", "soluble on expression in E. coli": "soluble"}
{"sequence": "MNARSTGQHPARYPGAAAGEPTLDSWQEPPHNRWAFAHLGEMVPSAAVSRRPVNAPGHALVRLGAIAAQLPDLEQRLEQTYTDAFLVLRGTEVVAEYYRAGFAPDDRHLLMSVSKSLCGTVVGVLVDEGRIDPAQPVTEYVPELAGSVYDGPSVLQVLDMQISIDYNEDYVDPASEVQTHGRSAGWSTRRHGDPADTYEFLTTLRGDGSTGEFQYCSANTDVLAWIVERVTGLRYVEALSTYLWAKLDADRDATITVDTTGFGCAHGGVSCTARDLARVGRMMLDGGVAPRGRVVSEDWVRRVLAGGSHEAMTDKGFTNTFPDGSYTRQWWCTGNERANVSGIGIHGQNLWLDPLTDSVIVKLSSWPDPYTEHWHRLQNGILLDVSRALDAV", "soluble on expression in E. coli": "soluble"}
{"sequence": "MKKDIILSGVGGQGILSIATVIGKAALKDGLYMKQAEVHGMSQRGGDVQSNLRISDQPIASDLIPSGKCDLIISLEPMEGLRYLPYLGHEGWLVTNETPFVNIPNYPAESDVMAEINKLPHKVVLNVDKVAKELGSTRVANIVLLGATIPFLGIDYEKIQDSIREIFQRKGDAIVELNLKALAAGKEIAEK", "soluble on expression in E. coli": "soluble"}
{"sequence": "DQLYALFDAFFDEDLSQSPEQATSLGLDTGKHADARSRLSDRSTAAWLRDRAEPAERIARLKTIDRKALSGDDAINYDTALFNYEARQGTSRFDFGDGARPFVLTQFYGSYISTPSFLDGRHKIASAADADAYLGRMKAFATVLDQETQRAGADAAKGVIPADFIVDKAIAQLQQFRSLPVEKNVLVASAARRAKAYGDYDAKAAAILTGEIHPALDRQIAALQAMRAKAVHDAGIGRLKDGDAFYAALLKIYTTTNKTPEEVHRLGLEEGAEIQARMDEILKKRGLTQGTVGQRMARLNTMPGQVFANTDEGRAELLAYCTERLAKLQPLLPQWFGVMPKTPVVVRRVPAYTEAGSAGAYYERPALDGSRPGAVYINLRDTAERPRWSLATLMHHEGAPGHHFQLALVAESNLPKLRQNMGFSANTEGWALYAEQVAMEMGIYDDGDDLGLLGMYQARLFRASRCVVDTGIHAKGWSREKAIAYMIETGGDPEVRVSREVERYCANPGQACSYKVGHTVWAALRERTKQRLGSKFDIKRFHDTALLVGPAPLTVLEGVLDRWQ", "soluble on expression in E. coli": "not soluble"}
{"sequence": "MSLGNGVGTCDLPPQFAYFFQFSHLSATRNLLCLDLDETLVCSKQRTPQTRETEDFYVVVEQRGKRYEFSVIKRPGLDVFLVSMAELYDLAIFTYAIKEYGDKIVNIIDPNRLIKYRMYRQHCVKYLVDKRHVIVKDLSRVGKPHSSILLIDNSASTGIWQRNNFLLVPSFYGDERDKVLYELKELLEGISKCKDFYTEIQSLRSVEGHHHHHH", "soluble on expression in E. coli": "soluble"}
